Test results: article PMC2185550
Where “and” joins values, the source holds several entries; their conditions need not be identical. Equal entries are not always repeated.

Key:
[1] = target: p300 (human (endogenous in HEp-2)) (UniProt Q09472); assay: co-IP
[2] = target: CREB-binding protein (CBP) (human (endogenous in HEp-2)) (UniProt Q92793); assay: co-IP
Sequence of UniProt Q92793 (Q92793 whole entry): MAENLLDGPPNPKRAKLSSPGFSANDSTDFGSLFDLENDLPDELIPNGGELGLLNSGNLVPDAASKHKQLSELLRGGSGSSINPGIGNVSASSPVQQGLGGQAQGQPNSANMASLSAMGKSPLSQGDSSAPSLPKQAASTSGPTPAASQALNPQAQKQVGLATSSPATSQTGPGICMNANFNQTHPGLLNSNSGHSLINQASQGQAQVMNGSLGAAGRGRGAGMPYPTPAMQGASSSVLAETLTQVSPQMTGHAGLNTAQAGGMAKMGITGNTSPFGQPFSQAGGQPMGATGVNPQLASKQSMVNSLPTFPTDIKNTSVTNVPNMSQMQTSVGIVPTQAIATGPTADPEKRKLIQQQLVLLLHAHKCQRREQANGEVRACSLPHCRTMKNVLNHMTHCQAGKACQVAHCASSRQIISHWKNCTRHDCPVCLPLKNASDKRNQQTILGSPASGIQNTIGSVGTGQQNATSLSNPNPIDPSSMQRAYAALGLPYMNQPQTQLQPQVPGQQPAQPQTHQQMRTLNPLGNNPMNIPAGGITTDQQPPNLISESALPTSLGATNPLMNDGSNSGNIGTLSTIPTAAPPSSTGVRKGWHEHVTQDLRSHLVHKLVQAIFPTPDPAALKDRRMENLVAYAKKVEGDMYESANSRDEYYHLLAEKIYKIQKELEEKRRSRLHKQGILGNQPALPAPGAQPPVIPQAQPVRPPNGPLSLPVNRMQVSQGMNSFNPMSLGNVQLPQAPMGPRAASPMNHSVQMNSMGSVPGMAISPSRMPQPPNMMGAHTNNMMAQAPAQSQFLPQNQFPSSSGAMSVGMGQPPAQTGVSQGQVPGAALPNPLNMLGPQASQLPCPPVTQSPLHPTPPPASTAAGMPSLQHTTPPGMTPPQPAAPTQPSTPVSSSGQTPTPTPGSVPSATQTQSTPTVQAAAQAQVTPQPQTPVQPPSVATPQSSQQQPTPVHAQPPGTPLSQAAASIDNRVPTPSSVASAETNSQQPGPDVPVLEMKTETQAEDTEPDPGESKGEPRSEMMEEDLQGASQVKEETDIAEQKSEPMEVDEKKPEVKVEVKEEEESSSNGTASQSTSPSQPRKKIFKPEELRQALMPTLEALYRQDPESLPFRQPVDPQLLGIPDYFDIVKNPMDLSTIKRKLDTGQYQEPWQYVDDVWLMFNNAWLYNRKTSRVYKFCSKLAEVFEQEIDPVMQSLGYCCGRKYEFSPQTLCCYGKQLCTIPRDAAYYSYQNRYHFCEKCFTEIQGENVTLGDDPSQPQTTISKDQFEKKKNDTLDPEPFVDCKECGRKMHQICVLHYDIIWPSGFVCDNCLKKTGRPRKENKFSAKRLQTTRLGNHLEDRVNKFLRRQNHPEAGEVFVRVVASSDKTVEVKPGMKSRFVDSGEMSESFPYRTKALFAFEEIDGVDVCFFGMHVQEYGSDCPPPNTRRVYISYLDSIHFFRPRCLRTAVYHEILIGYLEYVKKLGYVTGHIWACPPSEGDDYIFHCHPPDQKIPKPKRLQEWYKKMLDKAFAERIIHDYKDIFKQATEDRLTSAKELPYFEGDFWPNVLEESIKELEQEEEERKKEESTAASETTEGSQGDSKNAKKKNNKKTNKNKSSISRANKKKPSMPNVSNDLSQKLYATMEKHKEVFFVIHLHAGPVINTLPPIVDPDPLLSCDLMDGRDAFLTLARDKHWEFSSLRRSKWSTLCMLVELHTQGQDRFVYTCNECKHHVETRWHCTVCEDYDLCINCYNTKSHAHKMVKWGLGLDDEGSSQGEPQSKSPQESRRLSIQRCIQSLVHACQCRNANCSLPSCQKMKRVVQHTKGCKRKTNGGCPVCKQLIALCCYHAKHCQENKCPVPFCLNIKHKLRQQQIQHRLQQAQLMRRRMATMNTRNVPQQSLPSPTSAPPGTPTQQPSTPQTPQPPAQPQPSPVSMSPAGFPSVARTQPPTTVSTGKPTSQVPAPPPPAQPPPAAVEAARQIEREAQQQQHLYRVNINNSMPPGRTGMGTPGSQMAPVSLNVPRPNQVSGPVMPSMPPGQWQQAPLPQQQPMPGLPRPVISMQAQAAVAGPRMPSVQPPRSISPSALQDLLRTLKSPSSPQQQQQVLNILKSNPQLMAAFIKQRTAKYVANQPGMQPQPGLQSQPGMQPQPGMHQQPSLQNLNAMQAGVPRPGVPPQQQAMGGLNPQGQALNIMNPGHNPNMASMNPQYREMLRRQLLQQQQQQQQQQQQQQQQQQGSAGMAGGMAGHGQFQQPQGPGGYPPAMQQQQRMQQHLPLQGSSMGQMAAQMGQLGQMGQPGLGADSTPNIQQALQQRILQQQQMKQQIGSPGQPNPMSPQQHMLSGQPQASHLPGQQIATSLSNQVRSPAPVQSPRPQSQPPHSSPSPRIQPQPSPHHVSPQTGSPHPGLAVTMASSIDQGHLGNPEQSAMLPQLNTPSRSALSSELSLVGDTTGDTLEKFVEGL

Sequence of UniProt Q09472 (Q09472 whole entry): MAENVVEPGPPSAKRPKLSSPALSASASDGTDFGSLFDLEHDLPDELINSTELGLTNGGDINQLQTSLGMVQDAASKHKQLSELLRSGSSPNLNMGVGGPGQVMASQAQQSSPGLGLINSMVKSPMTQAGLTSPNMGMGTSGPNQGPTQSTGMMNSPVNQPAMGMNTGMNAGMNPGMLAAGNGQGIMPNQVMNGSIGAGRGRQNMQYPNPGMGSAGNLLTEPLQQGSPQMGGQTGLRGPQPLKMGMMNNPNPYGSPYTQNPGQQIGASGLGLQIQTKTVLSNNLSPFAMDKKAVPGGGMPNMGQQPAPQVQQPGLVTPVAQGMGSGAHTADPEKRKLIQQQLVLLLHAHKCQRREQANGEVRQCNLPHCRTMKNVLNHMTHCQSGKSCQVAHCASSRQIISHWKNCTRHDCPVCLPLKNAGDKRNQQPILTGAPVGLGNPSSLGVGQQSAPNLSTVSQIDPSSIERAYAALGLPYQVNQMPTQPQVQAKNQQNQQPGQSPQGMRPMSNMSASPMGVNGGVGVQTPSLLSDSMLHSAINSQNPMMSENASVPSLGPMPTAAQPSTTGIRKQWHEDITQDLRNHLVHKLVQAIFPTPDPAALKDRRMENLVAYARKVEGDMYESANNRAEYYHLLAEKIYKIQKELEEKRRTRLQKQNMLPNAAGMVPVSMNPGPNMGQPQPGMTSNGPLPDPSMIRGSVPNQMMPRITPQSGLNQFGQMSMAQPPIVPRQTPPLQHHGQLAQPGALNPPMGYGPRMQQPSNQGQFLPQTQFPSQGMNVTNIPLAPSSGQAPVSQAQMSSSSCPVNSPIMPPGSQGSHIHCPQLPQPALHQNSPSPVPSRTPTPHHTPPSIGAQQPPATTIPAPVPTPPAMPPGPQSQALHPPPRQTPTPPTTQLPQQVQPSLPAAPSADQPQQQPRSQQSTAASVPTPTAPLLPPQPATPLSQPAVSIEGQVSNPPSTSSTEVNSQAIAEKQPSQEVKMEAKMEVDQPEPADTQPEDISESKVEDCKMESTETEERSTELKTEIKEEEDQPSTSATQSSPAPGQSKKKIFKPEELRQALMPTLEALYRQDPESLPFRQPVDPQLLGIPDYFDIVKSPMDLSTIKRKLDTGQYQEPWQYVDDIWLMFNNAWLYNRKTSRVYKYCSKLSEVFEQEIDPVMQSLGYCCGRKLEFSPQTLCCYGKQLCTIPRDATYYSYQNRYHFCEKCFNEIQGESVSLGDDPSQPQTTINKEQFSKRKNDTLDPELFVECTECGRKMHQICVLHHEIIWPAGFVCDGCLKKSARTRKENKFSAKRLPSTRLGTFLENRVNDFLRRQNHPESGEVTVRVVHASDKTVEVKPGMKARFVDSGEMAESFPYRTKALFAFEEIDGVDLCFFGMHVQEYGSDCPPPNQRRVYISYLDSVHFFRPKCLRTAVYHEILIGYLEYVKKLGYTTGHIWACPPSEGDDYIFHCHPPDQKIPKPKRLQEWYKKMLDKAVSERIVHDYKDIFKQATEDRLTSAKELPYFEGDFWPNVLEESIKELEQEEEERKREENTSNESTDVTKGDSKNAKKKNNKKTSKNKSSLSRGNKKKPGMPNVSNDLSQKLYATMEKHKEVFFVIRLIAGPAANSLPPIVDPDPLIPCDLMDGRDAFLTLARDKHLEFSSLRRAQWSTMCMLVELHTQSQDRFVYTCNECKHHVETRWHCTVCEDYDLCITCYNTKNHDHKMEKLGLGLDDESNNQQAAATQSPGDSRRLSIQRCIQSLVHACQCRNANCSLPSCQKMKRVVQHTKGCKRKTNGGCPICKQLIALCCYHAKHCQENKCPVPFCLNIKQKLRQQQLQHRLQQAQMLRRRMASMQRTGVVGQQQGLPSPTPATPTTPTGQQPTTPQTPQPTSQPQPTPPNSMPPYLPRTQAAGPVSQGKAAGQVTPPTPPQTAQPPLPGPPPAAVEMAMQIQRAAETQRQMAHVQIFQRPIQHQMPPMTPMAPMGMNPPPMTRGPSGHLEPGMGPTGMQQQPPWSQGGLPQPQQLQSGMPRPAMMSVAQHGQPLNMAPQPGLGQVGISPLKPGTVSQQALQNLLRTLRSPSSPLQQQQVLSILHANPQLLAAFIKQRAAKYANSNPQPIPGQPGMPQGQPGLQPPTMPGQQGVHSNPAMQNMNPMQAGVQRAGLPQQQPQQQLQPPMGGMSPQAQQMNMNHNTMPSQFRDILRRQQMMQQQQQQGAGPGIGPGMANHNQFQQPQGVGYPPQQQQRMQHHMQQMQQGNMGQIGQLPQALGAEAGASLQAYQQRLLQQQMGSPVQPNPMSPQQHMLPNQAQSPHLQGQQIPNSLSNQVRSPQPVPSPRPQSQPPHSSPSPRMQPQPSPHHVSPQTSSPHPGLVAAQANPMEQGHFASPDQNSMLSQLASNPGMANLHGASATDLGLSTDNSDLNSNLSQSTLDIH

percent of pol IIa recovered in the immunoprecipitate [1]: 10% and 20%
percent of pol IIa recovered in the immunoprecipitate [2]: 10% and 20%
Substance: hypophosphorylated RNA polymerase II (pol IIa), largest subunit (from UniProt P24928 1-1970) (natural protein)
